We go through six molecules from publication doi:10.64898/2025.12.08.692997 (bioRxiv, 2025).

In test [1] the target is Rat EphB1-Fc ectodomain (rat) (UniProt P09759). Put plainly: BLI. A general note: Biolayer interferometry detects binding as a change in optical thickness at a sensor tip.
Test [2] has as its target Mouse EphrinB2-His ectodomain (mouse) (UniProt P52800). Put plainly: mass photometry.
The target of test [3] is Rat EphB1-Fc ectodomain (rat) (UniProt P09759). The experiment in a line: AlphaScreen or HTRF. (In Alpha technology, singlet oxygen from a donor bead excites a nearby acceptor bead.)
Test [4] deals with T1, Human EphB1-His ectodomain (human, UniProt P54762 18-540).
T1 sequence: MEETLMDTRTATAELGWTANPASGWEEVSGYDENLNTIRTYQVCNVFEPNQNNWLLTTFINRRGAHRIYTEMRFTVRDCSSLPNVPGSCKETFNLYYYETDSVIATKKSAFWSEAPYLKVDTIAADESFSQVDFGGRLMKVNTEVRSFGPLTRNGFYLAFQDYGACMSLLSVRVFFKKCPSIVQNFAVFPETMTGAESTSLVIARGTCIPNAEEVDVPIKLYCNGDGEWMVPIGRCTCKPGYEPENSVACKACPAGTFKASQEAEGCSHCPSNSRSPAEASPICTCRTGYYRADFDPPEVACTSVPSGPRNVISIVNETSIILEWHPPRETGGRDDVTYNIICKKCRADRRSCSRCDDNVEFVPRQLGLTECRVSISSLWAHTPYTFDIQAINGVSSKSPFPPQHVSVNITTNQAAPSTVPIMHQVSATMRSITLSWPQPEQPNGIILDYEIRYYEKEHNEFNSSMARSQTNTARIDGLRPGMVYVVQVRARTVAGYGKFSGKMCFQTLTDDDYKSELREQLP
The experiment in a line: BLI.

In test [5] the target is T2, Human EphB2-His ectodomain (human, UniProt P29323 19-543).
T2 sequence: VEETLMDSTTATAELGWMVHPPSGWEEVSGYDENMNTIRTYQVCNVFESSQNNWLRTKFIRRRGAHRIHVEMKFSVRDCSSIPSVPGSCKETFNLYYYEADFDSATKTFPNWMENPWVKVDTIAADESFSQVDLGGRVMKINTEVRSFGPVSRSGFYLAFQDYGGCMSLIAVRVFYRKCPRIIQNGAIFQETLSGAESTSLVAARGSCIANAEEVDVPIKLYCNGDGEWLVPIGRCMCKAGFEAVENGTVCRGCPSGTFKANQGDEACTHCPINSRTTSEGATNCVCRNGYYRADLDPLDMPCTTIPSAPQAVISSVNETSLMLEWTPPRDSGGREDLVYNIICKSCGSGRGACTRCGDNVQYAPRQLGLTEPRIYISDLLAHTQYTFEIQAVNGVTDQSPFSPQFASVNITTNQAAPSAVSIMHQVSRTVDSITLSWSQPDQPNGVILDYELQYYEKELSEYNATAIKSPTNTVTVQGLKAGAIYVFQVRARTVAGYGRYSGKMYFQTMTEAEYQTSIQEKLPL
Put plainly: BLI.

For test [6], the target named is T2, Human EphB2-His ectodomain. The experiment in a line: BLI. This is another data set of the same source.
Test [7] has as its target T3, Human EphB4-His ectodomain (human, UniProt P54760 16-539).
T3 sequence: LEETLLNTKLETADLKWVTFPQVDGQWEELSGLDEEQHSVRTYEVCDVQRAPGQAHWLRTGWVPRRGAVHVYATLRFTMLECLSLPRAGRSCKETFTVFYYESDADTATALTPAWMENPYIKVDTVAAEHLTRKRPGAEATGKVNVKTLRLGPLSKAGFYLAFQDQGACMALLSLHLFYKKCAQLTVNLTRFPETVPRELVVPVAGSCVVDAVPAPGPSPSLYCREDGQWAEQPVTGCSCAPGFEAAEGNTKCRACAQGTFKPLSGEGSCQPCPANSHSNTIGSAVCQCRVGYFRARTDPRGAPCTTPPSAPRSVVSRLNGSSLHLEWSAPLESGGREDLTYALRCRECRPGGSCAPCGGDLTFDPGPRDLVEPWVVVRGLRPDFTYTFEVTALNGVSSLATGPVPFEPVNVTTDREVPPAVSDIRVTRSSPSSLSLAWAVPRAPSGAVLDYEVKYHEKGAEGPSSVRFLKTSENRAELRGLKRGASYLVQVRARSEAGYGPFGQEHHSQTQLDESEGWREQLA
The experiment in a line: BLI.

The target in test [8] is T4, Human EphB2-His ectodomain (human), P29323.
T4 chain: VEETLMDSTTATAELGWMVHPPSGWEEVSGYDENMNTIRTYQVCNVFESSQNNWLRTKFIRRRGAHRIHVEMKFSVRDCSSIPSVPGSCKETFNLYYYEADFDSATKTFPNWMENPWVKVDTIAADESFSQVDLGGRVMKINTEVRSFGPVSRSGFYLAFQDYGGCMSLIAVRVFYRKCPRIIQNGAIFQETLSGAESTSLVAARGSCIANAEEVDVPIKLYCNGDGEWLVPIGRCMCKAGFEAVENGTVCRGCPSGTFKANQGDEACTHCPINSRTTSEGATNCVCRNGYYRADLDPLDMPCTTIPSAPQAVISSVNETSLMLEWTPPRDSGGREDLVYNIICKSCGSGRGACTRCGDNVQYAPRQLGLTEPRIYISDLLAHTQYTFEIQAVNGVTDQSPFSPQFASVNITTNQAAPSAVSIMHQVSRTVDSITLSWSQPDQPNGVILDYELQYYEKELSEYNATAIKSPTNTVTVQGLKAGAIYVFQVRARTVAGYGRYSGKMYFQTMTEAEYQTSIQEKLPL
Put plainly: mass photometry. The conditions noted are these: remark: other sources report otherwise.

What is called stoichiometry N is a count of units in the complex or per binding partner. The term IC50 denotes the midpoint of a concentration-inhibition curve. Low readings indicate higher potency, high ones lower potency.

Where two headings read alike, the source gives them in different places. A value given as a limit tells only on which side of the number the result lay.

For “Mouse EphrinB2-His ectodomain (from UniProt P52800 29-232) (domain or fragment)”, in test [1], the KD1 (2:1 heterologous interaction model) was < 1 pM and the KD2 (dimer formation, 2:1 model) worked out at 39.7 nM. The molecule further returned a stoichiometry N in test [2] of 2.

“soluble Reelin protein (from UniProt Q60841 27-3461) (natural protein)” came in with an IC50 in test [3] of 50 nM.

B1: Human EphrinB1-Fc ectodomain (Fc fusion)
chain: LAKNLEPVSWSSLNPKFLSGKGLVIYPKIGDKLDIICPRAEAGRPYEYYKLYLVRPEQAAACSTVLDPNVLVTCNRPEQEIRFTIKFQEFSPNYMGLEFKKHHDYYITSTSNGSLEGLENREGGVCRTRTMKIIMKVGQDPNAVTPEQLTTSRPSKEADNTVKMATQAPGSRGSLGDSDGKHETVNQEEKSGPGASGGSSGDPDGFFNS
For B1, the binding result in test [4] and in test [5] was “binds” each time.

B2: Human EphrinB2-Fc ectodomain (Fc fusion)
chain: IVLEPIYWNSSNSKFLPGQGLVLYPQIGDKLDIICPKVDSKTVGQYEYYKVYMVDKDQADRCTIKKENTPLLNCAKPDQDIKFTIKFQEFSPNLWGLEFQKNKDYYIISTSNGSLEGLDNQEGGVCQTRAMKILMKVGQDASSAGSTRNKDPTRRPELEAGTNGRSSTTSPFVKPNPGSSTDGNSAGHSGNNILGSEVALFA
In the case of B2, the binding result in test [6], in test [4] and in test [7] was “binds” in each case.

B3: Human EphB2-His ectodomain, P29323 19-543 (domain or fragment)
chain: VEETLMDSTTATAELGWMVHPPSGWEEVSGYDENMNTIRTYQVCNVFESSQNNWLRTKFIRRRGAHRIHVEMKFSVRDCSSIPSVPGSCKETFNLYYYEADFDSATKTFPNWMENPWVKVDTIAADESFSQVDLGGRVMKINTEVRSFGPVSRSGFYLAFQDYGGCMSLIAVRVFYRKCPRIIQNGAIFQETLSGAESTSLVAARGSCIANAEEVDVPIKLYCNGDGEWLVPIGRCMCKAGFEAVENGTVCRGCPSGTFKANQGDEACTHCPINSRTTSEGATNCVCRNGYYRADLDPLDMPCTTIPSAPQAVISSVNETSLMLEWTPPRDSGGREDLVYNIICKSCGSGRGACTRCGDNVQYAPRQLGLTEPRIYISDLLAHTQYTFEIQAVNGVTDQSPFSPQFASVNITTNQAAPSAVSIMHQVSRTVDSITLSWSQPDQPNGVILDYELQYYEKELSEYNATAIKSPTNTVTVQGLKAGAIYVFQVRARTVAGYGRYSGKMYFQTMTEAEYQTSIQEKLPL
As to B3, in test [8], the stoichiometry N was determined as 2.

B4: Human EphrinB3-Fc ectodomain (Fc fusion)
chain: LSLEPVYWNSANKRFQAEGGYVLYPQIGDRLDLLCPRARPPGPHSSPNYEFYKLYLVGGAQGRRCEAPPAPNLLLTCDRPDLDLRFTIKFQEYSPNLWGHEFRSHHDYYIIATSDGTREGLESLQGGVCLTRGMKVLLRVGQSPRGGAVPRKPVSEMPMERDRGAAHSLEPGKENLPGDPTSNATSRGAEGPLPPPS
Take B4: the binding result in test [4] and in test [5] was “binds” in each case.
